For series [1] the following is noted: 40° C. and 75% relative humidity, over 3 months.
Protocol: Compositions containing varying amounts of protonated irinotecan, as well as differing in the amount of TFA versus HCl salt were examined.
Samples were taken and analyzed on a periodic basis over the course of the studies.
FIG. 2 and FIG. 3 show another set of data obtained from the sample containing >99% HCl salt (<1% free base, squares) and a sample consisting of 86% total salts (14% free base, diamonds) that were stored at 40° C. and 75% relative humidity. […] The increase in smaller PEG species is indicative of decomposition of the PEG backbone to provide multiple PEG species.
Series [2] is described as follows: Aqueous hydrolysis at pH 10. As to conditions: pH 10, 20° C., within 24 hours.
Protocol: (§1) Experiments were performed to determine the fate of the irinotecan-containing PEG species in 4-arm-PEG-Gly-Irino-20K mixed TFA.chloride salt under transesterification (K2CO3 in CH3OH, 20° C.) and aqueous hydrolysis (pH 10, 20° C.) conditions.
A short description of series [3]: Transesterification of irinotecan-containing PEG species. Particulars: K2CO3 in CH3OH, 20° C., after 45 minutes.
Protocol: as §1

Where two headings read alike, the source gives them in different places.

“Pentaerythritolyl-4-Arm-(PEG-1-Methylene-2Oxo-Vinylamino Acetate Linked-Irinotecan)-20K [listing 1 of 2 here]” showed a free irinotecan (after 4 weeks at 40° C.) of 1.25% and a free irinotecan (initial value, before storage) of 0.4%. In addition, the “total product related species” value runs as follows: (after 4 weeks at 40° C.) 97.0%; (initial value, before storage) 98.7%. Also, the “increase in free irinotecan (stability with respect to hydrolysis)” value in series [1] is listed as “greater hydrolytic stability than either the free base or mixed TFA.hydrochloride salt”. For the same substance, the “increase in smaller PEG species (PEG backbone decomposition)” value in series [1] (listed as HCl salt) is “more prone to PEG backbone decomposition than the mixed salt sample containing 14% free base”; in series [1] (listed as hydrochloride salt) it was “greater degree of backbone degradation”.

“Pentaerythritolyl-4-Arm-(PEG-1-Methylene-2Oxo-Vinylamino Acetate Linked-Irinotecan)-20K [listing 2 of 2 here]”: the “aqueous hydrolysis reaction completion” value in series [2] is recorded as more than 99%. For the same substance, the transesterification reaction completion in series [3] is more than 99%.

Source of the values: patent US9226969B2, “Salt form of a multi-arm polymer-drug conjugate” (priority 2009, dated 2016).
